According to patent publication US20190177434A1:
Numbering of substitutions follows the chain as printed. One block for each binder: values may come before it.

Molecular target: Human IgG, Fc fragment (human)
Test: method not given

B1: IgG-Fc-14 (VHH)
VHH: QVQLQESGGGLVQTGGSLRLSCSASGGTFETYAMGWFRQAPGKEREFVGSTNWKSERTYVADSVKGRFTISRDNGQYTAYLQMTSLKPEDTAVYFCVARSFGTGQWDYWGQGTQVTVSS
- Ka: > 4e+09 M⁻¹

B4: IgG-Fc-11 (VHH)
VHH: QVQLQESGGGLVQAGGSLRLSCAVSGRTFSTYAMGWFRQAPGKEREFVGSANWKSGSTYLVDSVKGRFTISGDNAHDTVHLQMTSLKPEDTGVYFCVARSFGTGQWDYWGQGTQVTVSS
- Ka: > 4e+09 M⁻¹

Further lines, results first:

- Ka: > 4e+09 M⁻¹
B2: IgG-Fc-13 (VHH)
VHH: QVQLQESGGGLVQAGGSLRLSCAASGDTFSTYAMGWFRQAPGKEREFVGRIVRGTESTYLIDSVKGRFAISRDNAQNTVYLQMTSLKPEDTAVYFCVARSFGAGQWDYWGQGTQVTVSS

- Ka: > 4e+09 M⁻¹
B3: IgG-Fc-15 (VHH)
VHH: QVQLQESGGGLVQAGGSLRLSCAVSGRGFSTYAMGWFRQAPGKEREFVGSANWKSGSIYVADSVKGRFTISNDNAQNTVYLQMSSLKPEDTAVYYCVARSFGTGQWDYWGQGTQVTVSS

- Ka: > 4e+09 M⁻¹
B5: IgG-Fc-12 (VHH)
VHH: B3 VHH with G28T, A51I, W53F, V60L, N72G, V79A, S84T, Y95L
